The values below come from PMC8395317, “The Simple Method of Preparation of Highly Carboxylated Bacterial Cellulose with Ni- and Mg-Ferrite-Based Versatile Magnetic Carrier for Enzyme Immobilization” (International Journal of Molecular Sciences, 2021).

Substrate in the data set: CCCC(=O)Oc1ccc([N+](=O)[O-])cc1
Put plainly: purified protein. Format: biochemical, Moesziomyces antarcticus. Particulars: free enzyme, 0.1 to 1.2 mmol/L pNPB, 50 mmol/L phosphate pH 7.0, 0.004% Triton X-100, 30 °C.

B1: lipase B from Candida antarctica (Lipozyme CALB-L) (Moesziomyces antarcticus) (protein)
chain: LPSGSDPAFSQPKSVLDAGLTCQGASPSSVSKPILLVPGTGTTGPQSFDSNWIPLSTQLGYTPCWISPPPFMLNDTQVNTEYMVNAITALYAGSGNNKLPVLTWSQGGLVAQWGLTFFPSIRSKVDRLMAFAPDYKGTVLAGPLDALAVSAPSVWQQTTGSALTTALRNAGGLTQIVPTTNLYSATDEIVQPQVSNSPLDSSYLFNGKNVQAQAVCGPLFVIDHAGSLTSQFSYVVGRSALRSTTGQARSADYGITDCNPLPANDLTPEQKVAAAALLAPAAAAIVAGPKQNCEPDLMPYARPFAVGKRTCSGIVTP
notes: commercial recombinant enzyme (Lipozyme CALB-L, Sigma-Aldrich), used without further purification; free form
As to B1, the Km came out at 160 ± 10 µM.

The term Km denotes the concentration of substrate that gives half-maximal velocity.
